Laboratory results published in US20240182563A1 (GENOME, published 2024).
Residue numbers refer to the chain shown, from its start. One block for each binder: values may come before it.

Legend:
[1] = molecular target: T1, Human CNTN-4 protein (human, UniProt Q8IWV2 19-1000, limits assumed); test: SPR, antibody captured by anti-human IgG Fc on CM5 chip, CNTN4 as analyte
T1 construct: soluble antigen run over the captured antibody; also called human CNTN4 (SPR analyte)
T1 sequence (looked up): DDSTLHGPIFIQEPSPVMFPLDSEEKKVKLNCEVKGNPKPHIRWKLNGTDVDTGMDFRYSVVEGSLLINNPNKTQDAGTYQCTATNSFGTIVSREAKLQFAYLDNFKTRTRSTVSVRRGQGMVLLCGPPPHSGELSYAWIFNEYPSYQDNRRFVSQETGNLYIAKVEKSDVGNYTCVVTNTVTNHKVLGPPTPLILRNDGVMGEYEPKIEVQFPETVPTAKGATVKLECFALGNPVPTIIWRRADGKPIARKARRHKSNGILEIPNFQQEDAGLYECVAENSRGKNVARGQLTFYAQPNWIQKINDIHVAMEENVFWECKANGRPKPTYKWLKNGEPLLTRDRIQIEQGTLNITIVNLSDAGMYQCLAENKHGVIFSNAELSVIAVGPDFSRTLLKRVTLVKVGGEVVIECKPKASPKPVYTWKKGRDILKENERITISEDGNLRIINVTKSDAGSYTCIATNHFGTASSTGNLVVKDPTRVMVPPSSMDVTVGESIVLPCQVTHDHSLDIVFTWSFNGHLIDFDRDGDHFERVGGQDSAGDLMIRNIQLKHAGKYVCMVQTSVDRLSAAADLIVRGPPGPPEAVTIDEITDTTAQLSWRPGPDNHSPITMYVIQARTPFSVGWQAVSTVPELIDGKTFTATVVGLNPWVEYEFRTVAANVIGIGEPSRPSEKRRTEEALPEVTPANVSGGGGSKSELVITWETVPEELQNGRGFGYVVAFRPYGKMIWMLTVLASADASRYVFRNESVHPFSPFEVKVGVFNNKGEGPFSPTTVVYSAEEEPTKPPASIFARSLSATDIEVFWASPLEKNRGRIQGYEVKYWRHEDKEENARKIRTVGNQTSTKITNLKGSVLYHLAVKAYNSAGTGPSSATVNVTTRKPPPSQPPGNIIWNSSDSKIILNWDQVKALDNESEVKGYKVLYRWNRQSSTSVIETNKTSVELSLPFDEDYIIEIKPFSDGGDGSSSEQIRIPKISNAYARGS
Method: An SPR test was performed on L1H2, which is most humanized at about 98%, among the antibodies prepared in Example 3.1. More specifically, in order to bind anti-human IgG Fc (capture antibody) using amine coupling, CM5 chip was mounted, running buffer was allowed to flow, the chip was activated, and then capture antibody was attached thereto. Dextrin to which capture antibody was not attached was deactivated using ethanolamine, and then regeneration was performed using 3M magnesium chloride to clear analyte except capture antibody. The L1H2 prepared at a concentration of 0.05 μg/mL was allowed to flow for 30 seconds at a rate of 10 μL/min for binding. Thereafter, human CNTN4 (400 nM to 0.78 nM) prepared by sequential dilution as an antigen was allowed to flow at a rate of 30 μL/min for 3 minutes to be bound, and dissociation was performed for 5 minutes. Then, in order to clear all analytes attached to the capture antibody, a regeneration solution (3M magnesium chloride) was allowed to flow at a rate of 20 μL/min for 30 seconds, and regeneration was performed. For each concentration of antigen, binding of L1H2, binding of antigen, dissociation, and regeneration were repeated in order.

[2] = molecular target: T2, mouse CNTN4-10xHis (mouse, UniProt Q69Z26 19-1000); test: ELISA, plate coated with CNTN4-10xHis, anti-human Fc-HRP
T2 sequence: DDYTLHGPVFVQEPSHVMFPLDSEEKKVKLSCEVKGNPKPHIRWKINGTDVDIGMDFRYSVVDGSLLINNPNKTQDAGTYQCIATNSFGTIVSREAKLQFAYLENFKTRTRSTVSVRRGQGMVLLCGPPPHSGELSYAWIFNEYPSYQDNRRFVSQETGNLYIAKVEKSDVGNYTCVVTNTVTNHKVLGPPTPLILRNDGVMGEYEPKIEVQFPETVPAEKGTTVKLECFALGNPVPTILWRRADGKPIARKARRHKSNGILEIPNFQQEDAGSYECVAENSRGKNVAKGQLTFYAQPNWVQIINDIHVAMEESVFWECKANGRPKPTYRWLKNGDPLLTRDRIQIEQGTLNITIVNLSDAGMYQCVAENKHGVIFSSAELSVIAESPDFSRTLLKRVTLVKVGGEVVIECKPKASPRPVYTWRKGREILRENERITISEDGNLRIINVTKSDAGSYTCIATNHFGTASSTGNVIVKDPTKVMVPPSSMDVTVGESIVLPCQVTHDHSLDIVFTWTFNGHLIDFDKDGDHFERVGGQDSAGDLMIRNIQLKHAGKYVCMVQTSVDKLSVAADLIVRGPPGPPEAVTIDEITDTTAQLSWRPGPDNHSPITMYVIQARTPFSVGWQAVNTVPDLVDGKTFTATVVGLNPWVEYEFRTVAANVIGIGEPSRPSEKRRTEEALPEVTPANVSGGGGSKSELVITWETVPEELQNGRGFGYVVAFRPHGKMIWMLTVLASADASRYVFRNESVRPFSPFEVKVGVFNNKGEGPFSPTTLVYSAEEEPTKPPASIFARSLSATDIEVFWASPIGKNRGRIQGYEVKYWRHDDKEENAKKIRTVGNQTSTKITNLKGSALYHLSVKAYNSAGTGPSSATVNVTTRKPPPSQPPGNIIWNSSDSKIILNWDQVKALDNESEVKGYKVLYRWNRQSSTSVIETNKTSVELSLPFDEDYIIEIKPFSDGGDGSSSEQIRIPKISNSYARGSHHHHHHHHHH
Method: (§1) The LAH2, L1H2, and L2H2 antibodies prepared in Example 3.1 were subjected to an ELISA test together with A-01. An ELISA plate was coated with 200 ng of antigens (human CNTN4-10xHis or mouse CNTN4-10xHis). For antibody binding, antibodies were serially diluted from a maximum of 1 μM to 0.0001 nM, thereby binding to the antigen. Anti-human Fc-HRP was used as a secondary antibody for antibody detection. Color was developed using ABTS, which is a color developing reagent, and the absorbance at 405 nm was measured.

[3] = molecular target: T3, human CNTN4-10xHis (human, UniProt Q8IWV2 19-1000); test: as above
T3 sequence: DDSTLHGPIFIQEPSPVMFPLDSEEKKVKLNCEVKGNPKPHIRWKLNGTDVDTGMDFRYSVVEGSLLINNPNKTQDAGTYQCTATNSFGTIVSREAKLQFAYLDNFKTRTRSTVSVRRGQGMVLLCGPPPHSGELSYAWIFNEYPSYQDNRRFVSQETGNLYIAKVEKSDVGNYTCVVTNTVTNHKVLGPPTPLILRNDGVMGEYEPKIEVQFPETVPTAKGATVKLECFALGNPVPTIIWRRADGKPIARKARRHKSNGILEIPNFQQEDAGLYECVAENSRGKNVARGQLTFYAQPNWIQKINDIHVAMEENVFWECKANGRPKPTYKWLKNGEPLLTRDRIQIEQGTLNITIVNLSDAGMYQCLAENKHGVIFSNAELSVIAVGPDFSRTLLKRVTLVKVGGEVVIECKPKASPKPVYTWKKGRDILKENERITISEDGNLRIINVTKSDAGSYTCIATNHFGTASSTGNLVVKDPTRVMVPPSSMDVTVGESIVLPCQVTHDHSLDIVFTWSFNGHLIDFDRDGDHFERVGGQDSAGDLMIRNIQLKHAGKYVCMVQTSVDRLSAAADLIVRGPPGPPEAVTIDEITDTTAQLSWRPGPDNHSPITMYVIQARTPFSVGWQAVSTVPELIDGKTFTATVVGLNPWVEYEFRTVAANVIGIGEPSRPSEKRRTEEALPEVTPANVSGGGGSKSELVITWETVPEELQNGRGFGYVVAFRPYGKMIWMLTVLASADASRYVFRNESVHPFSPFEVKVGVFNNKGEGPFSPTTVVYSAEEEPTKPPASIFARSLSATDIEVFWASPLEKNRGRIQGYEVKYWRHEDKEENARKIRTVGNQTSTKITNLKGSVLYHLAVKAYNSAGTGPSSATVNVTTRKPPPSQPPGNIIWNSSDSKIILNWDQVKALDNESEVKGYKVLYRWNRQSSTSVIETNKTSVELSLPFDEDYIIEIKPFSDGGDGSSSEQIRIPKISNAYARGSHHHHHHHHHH
Method: as §1

Kd [1]: 93.2 nM
EC50 [2]: 0.029 nM
fold difference in binding ability against A-01 [2]: ≤ 3 times
EC50 [3]: 0.028 nM
fold difference in binding ability against A-01 [3]: ≤ 3 times
B1: anti-CNTN4 humanized antibody L1H2 (antibody, V domains shown)
VH: EVQLLESEGGLVQPGGSLRLSCAASGFTFSSFNMFWVRQAPGKGLEWVAEISGGGGSTWYAPAVKGRATISRDNSKNTVYLQMNSLRAEDTAVYYCAKSADTWSYGAATIDAWGQGTLVTVSS
VL: ELTQDPAVSVALGQTVRITCSGSSGSYGWYQQKPGQAPVLVIYDNTNRPSGIPDRFSGSSSGNTASLTITGAQAEDEADYYCGGYDGSTDVFGGGTKLTVL
notes: in the form of IgG4

EC50 [2]: 0.019 nM
EC50 [3]: 0.018 nM
B2: anti-CNTN4 humanized antibody L2H2 (antibody, V domains shown)
VH: B1 VH
VL: B1 VL with L40T, V41L, N63S, A65G
notes: in the form of IgG4
